According to US20240400654A1:
Changes are numbered by the printed parent chain. Names may count otherwise. “And” between values parts separate entries of the source, which are not always exact repeats. Equal entries are not always repeated.

B1: KB001 mouse Fab VH L29V (Fab, V domains shown)
VH: EVQLKQSGPGLVAPSQSLSITCTVSGFSVSIYSVHWVRQPPGKGLEWLGMIWGGGSSDYNSALKSRLSISKDNSKSQVFLKMNSLQTDDTAMYYCARNGNFYAMDYWGQGTSVTVSS
VL: QIVLTQSPAIMSASLGERVTMTCTASSSVSSSFLHWYQQKPGSSPQLWIYSTSNLASGVPARFSGSGSGTSYSLTISSMEAEDAATYYCHQYHHSPYIYTFGGGTKLEIK
B2: KB001 mouse Fab VH S30T (Fab, V domains shown)
VH: B1 VH with V29L, S30T
VL: B1 VL
B3: KB001 mouse Fab VH I31W (Fab, V domains shown)
VH: B1 VH with V29L, I31W
VL: B1 VL
B4: KB001 mouse Fab VH S56M (Fab, V domains shown)
VH: B1 VH with V29L, S56M
VL: B1 VL
B5: KB001 mouse Fab VH S30Q (Fab, V domains shown)
VH: B1 VH with V29L, S30Q
VL: B1 VL
B6: KB001 mouse Fab VH Y32S (Fab, V domains shown)
VH: B1 VH with V29L, Y32S
VL: B1 VL
B7: KB001 mouse Fab VH I31N (Fab, V domains shown)
VH: B1 VH with V29L, I31N
VL: B1 VL
B8: KB001 mouse Fab VH I31F (Fab, V domains shown)
VH: B1 VH with V29L, I31F
VL: B1 VL
B9: KB001 mouse Fab VH S56E (Fab, V domains shown)
VH: B1 VH with V29L, S56E
VL: B1 VL
B10: KB001 mouse Fab VH S57R (Fab, V domains shown)
VH: B1 VH with V29L, S57R
VL: B1 VL
B11: KB001 mouse Fab VH G53S (Fab, V domains shown)
VH: B1 VH with V29L, G53S
VL: B1 VL
B12: KB001 mouse Fab VH G53P (Fab, V domains shown)
VH: B1 VH with V29L, G53P
VL: B1 VL
B13: KB001 mouse Fab VH Y32F (Fab, V domains shown)
VH: B1 VH with V29L, Y32F
VL: B1 VL
B14: KB001 mouse Fab VH S56P (Fab, V domains shown)
VH: B1 VH with V29L, S56P
VL: B1 VL
B15: KB001 mouse Fab VH Y32N (Fab, V domains shown)
VH: B1 VH with V29L, Y32N
VL: B1 VL
B16: KB001 mouse Fab VH Y59K (Fab, V domains shown)
VH: B1 VH with V29L, Y59K
VL: B1 VL
B17: KB001 mouse Fab VH S56T (Fab, V domains shown)
VH: B1 VH with V29L, S56T
VL: B1 VL
B18: KB001 mouse Fab VH G55N (Fab, V domains shown)
VH: B1 VH with V29L, G55N
VL: B1 VL
B19: KB001 mouse Fab VH I31P (Fab, V domains shown)
VH: B1 VH with V29L, I31P
VL: B1 VL
B20: KB001 mouse Fab VH S30R (Fab, V domains shown)
VH: B1 VH with V29L, S30R
VL: B1 VL
B21: KB001 mouse Fab VH S57M (Fab, V domains shown)
VH: B1 VH with V29L, S57M
VL: B1 VL
B22: KB001 mouse Fab VH S56N (Fab, V domains shown)
VH: B1 VH with V29L, S56N
VL: B1 VL
B23: KB001 mouse Fab VH I51Q/M92I (Fab, V domains shown)
VH: B1 VH with V29L, I51Q, M92I
VL: B1 VL
B24: KB001 mouse Fab VH S30M (Fab, V domains shown)
VH: B1 VH with V29L, S30M
VL: B1 VL
B25: KB001 mouse Fab VH I31E (Fab, V domains shown)
VH: B1 VH with V29L, I31E
VL: B1 VL
B26: KB001 mouse Fab VH Y32W (Fab, V domains shown)
VH: B1 VH with V29L, Y32W
VL: B1 VL
B27: KB001 mouse Fab VH S30L (Fab, V domains shown)
VH: B1 VH with V29L, S30L
VL: B1 VL
B28: KB001 mouse Fab VH D58S (Fab, V domains shown)
VH: B1 VH with V29L, D58S
VL: B1 VL
B29: KB001 mouse Fab VH H35V (Fab, V domains shown)
VH: B1 VH with V29L, H35V
VL: B1 VL
B30: KB001 mouse Fab VH G55D (Fab, V domains shown)
VH: B1 VH with V29L, G55D
VL: B1 VL
B31: KB001 mouse Fab VH I51V (Fab, V domains shown)
VH: B1 VH with V29L, I51V
VL: B1 VL
B32: KB001 mouse Fab VH S57T (Fab, V domains shown)
VH: B1 VH with V29L, S57T
VL: B1 VL
B33: KB001 mouse Fab VH S30F (Fab, V domains shown)
VH: B1 VH with V29L, S30F
VL: B1 VL
B34: KB001 mouse Fab VH S30K (Fab, V domains shown)
VH: B1 VH with V29L, S30K
VL: B1 VL
B35: KB001 mouse Fab VH S56L (Fab, V domains shown)
VH: B1 VH with V29L, S56L
VL: B1 VL
B36: KB001 mouse Fab VH I31L (Fab, V domains shown)
VH: B1 VH with V29L, I31L
VL: B1 VL
B37: KB001 mouse Fab VH I31Q (Fab, V domains shown)
VH: B1 VH with V29L, I31Q
VL: B1 VL
B38: KB001 mouse Fab VH V34M (Fab, V domains shown)
VH: B1 VH with V29L, V34M
VL: B1 VL
B39: KB001 mouse Fab VH S30W (Fab, V domains shown)
VH: B1 VH with V29L, S30W
VL: B1 VL
B40: KB001 mouse Fab VH S57H (Fab, V domains shown)
VH: B1 VH with V29L, S57H
VL: B1 VL
B41: KB001 mouse Fab VH S30H (Fab, V domains shown)
VH: B1 VH with V29L, S30H
VL: B1 VL
B42: KB001 mouse Fab VH D58G (Fab, V domains shown)
VH: B1 VH with V29L, D58G
VL: B1 VL

Target: HRgpA-6H (Porphyromonas gingivalis) (UniProt P28784)
UniProt P28784, sequence (P28784 228-860 limits assumed): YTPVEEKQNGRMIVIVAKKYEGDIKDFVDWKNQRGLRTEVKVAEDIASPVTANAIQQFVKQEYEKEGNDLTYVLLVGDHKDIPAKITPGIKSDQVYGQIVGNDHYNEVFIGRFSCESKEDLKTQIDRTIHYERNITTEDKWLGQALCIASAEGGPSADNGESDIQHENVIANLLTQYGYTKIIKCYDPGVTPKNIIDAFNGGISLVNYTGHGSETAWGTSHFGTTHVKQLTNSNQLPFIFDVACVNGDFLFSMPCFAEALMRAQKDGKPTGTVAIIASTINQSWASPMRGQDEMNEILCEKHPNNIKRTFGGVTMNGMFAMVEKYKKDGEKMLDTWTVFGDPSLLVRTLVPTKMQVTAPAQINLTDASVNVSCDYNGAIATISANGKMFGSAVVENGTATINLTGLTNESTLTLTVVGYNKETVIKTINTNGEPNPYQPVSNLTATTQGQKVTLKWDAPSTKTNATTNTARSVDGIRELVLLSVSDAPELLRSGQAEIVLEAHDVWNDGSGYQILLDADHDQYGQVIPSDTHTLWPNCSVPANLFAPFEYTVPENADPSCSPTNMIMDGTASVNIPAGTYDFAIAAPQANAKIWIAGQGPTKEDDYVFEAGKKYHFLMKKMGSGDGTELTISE
Experiment: ELISA, coated HRgpA-6H

| Binder | OD450 nm | Ratio OD(Variant)/OD(WT) |
| --- | --- | --- |
| B1 | 0.446 | 0.826 |
| B2 | 0.457 | 0.906 |
| B3 | 0.459 | 0.91 |
| B4 | 0.809 | 0.92 |
| B5 | 0.47 and 0.483 | 0.932 and 0.957 |
| B6 | 0.717 and 0.783 and 0.718 | 0.847 and 0.925 and 0.848 |
| B7 | 0.429 | 0.85 |
| B8 | 0.45 | 0.892 |
| B9 | 0.772 and 0.713 | 0.878 and 0.811 |
| B10 | 0.796 | 0.905 |
| B11 | 0.686 | 0.861 |
| B12 | 0.754 and 0.716 | 0.947 and 0.899 |
| B13 | 0.814 and 0.807 | 0.962 and 0.953 |
| B14 | 0.855 and 0.788 and 0.824 | 0.972 and 0.896 and 0.937 |
| B15 | 0.826 and 0.775 | 0.976 and 0.916 |
| B16 | 0.648 | 0.819 |
| B17 | 0.838 and 0.844 and 0.853 | 0.953 and 0.96 and 0.97 |
| B18 | 0.652 | 0.81 |
| B19 | 0.471 and 0.428 | 0.934 and 0.848 |
| B20 | 0.481 | 0.953 |
| B21 | 0.748 | 0.85 |

| Binder | OD450 nm | Ratio OD(Variant)/OD(WT) |
| --- | --- | --- |
| B22 | 0.759 and 0.743 | 0.863 and 0.845 |
| B23 | 0.722 | 0.817 |
| B24 | 0.437 | 0.866 |
| B25 | 0.42 and 0.458 and 0.428 | 0.833 and 0.908 and 0.848 |
| B26 | 0.731 and 0.718 and 0.747 | 0.864 and 0.848 and 0.882 |
| B27 | 0.468 | 0.928 |
| B28 | 0.646 | 0.817 |
| B29 | 0.706 | 0.856 |
| B30 | 0.697 | 0.866 |
| B31 | 0.798 | 0.903 |
| B32 | 0.843 and 0.849 | 0.958 and 0.965 |
| B33 | 0.438 | 0.868 |
| B34 | 0.46 and 0.467 and 0.493 | 0.912 and 0.926 and 0.977 |
| B35 | 0.71 | 0.807 |
| B36 | 0.442 and 0.431 | 0.876 and 0.854 |
| B37 | 0.44 and 0.439 | 0.872 and 0.87 |
| B38 | 0.793 and 0.791 | 0.962 and 0.959 |
| B39 | 0.469 | 0.93 |
| B40 | 0.8 | 0.91 |
| B41 | 0.482 | 0.955 |
| B42 | 0.778 | 0.984 |
